How the values were obtained:
[1] = Toxicity study with supratherapeutic dose in healthy mice; format: in vivo, Balb/c mice
Experimental: In addition, Balb/c mice (not treated with DSS) were treated with 100 mg/kg body weight-Galectin-2, a dose that was up to 50-fold higher than doses of Galectin-2 that caused optimal anti-inflammatory effects in DSS treated mice (optimal therapeutic doses ranged from 1.5-3 mg/kg body weight per day). In these toxicity studies Balb/c mice (n=5), weighing on average 20 g, were treated with 100 mg/kg body weight Galectin-2 once daily i.p. for 5 days. The mice gained about 7±1.7% weight during the 5 day treatment period. […] The mice were sacrificed following the 5 day treatment period and organs were collected for pathological assessment by an experienced pathologist.

CD3, CD7, β1 integrin = assay: Magnetic separation / co-immunoprecipitation of galectin containing complexes; format: binding, human; conditions: galectin coated beads, immunoblot for CD3, CD7, β1
Experimental: For immunoblotting cells were washed in PBS, and lysed in cell lysis buffer (1% Triton-X, 0.5% NP-40, 0.1% SDS, 0.5% sodium deoxycholate, 5 mM EDTA, 50 mM and 50 mM protease- and phosphatase-inhibitor cocktail 2, 1 mM PMSF, 100 μg/ml trypsin-chymotrypsin inhibitor, 100 μg/ml chymostatin in PBS). The concentration of proteins in each lysate was measured using the Bio-Rad protein assay (Bio-Rad Laboratories, Hercules, Calif.). Equivalent amounts of protein (10 μg) were fractionated on a 10-20% Tris-glycine gel and electrotransferred to a nitrocellulose membrane (Novex, San Diego, Calif.). Membranes were blocked with 5% milk in 0.1% Tween 20-PBS (Fisher Scientific, Hanover Park, Ill.), followed by incubation for 60 m in at room temperature with the indicated primary antibody. The membranes were washed six times with 0.1% Tween 20-PBS and then incubated for 1 h with the appropriate horseradish peroxidase-conjugated secondary antibody (Santa Cruz Biotechnology), washed, and incubated with the chemiluminescent substrate (Perkin-Elmer, Carlsbad, Calif.) for 5 minutes. The membranes were then exposed to film (Amersham, Arlington Heights, Ill.). […]

PBT [2] = assay: Analysis of T cell cycling (DNA content, cyclin B1, cell cycle regulators); format: cell-based, human
Experimental: (§1) For immunoblotting cells were washed in PBS, and lysed in cell lysis buffer (1% Triton-X, 0.5% NP-40, 0.1% SDS, 0.5% sodium deoxycholate, 5 mM EDTA, 50 mM and 50 mM protease- and phosphatase-inhibitor cocktail 2, 1 mM PMSF, 100 μg/ml trypsin-chymotrypsin inhibitor, 100 μg/ml chymostatin in PBS). The concentration of proteins in each lysate was measured using the Bio-Rad protein assay (Bio-Rad Laboratories, Hercules, Calif.). Equivalent amounts of protein (10 μg) were fractionated on a 10-20% Tris-glycine gel and electrotransferred to a nitrocellulose membrane (Novex, San Diego, Calif.). Membranes were blocked with 5% milk in 0.1% Tween 20-PBS (Fisher Scientific, Hanover Park, Ill.), followed by incubation for 60 m in at room temperature with the indicated primary antibody. The membranes were washed six times with 0.1% Tween 20-PBS and then incubated for 1 h with the appropriate horseradish peroxidase-conjugated secondary antibody (Santa Cruz Biotechnology), washed, and incubated with the chemiluminescent substrate (Perkin-Elmer, Carlsbad, Calif.) for 5 minutes. The membranes were then exposed to film (Amersham, Arlington Heights, Ill.).
Flow cytometry was performed after staining for DNA content, and cyclin B1, essentially as previously described (21). Briefly, cells were washed twice with PBS, adjusted to 1×10^6 cells/sample and fixed in 90% Methanol at −20° C. After fixation, cells were washed twice with PBS, incubated for 45 min at 4° C. with a cyclin B1-FITC conjugated monoclonal antibody. After the final wash, cells were resupended in PBS and 5 μl of RNase (0.6 μg/ml, 30-60 Kunitz Units, Sigma), incubated at 37° C. for 15 min and the chilled on ice. One hundred and twenty five microliters of PI (200 μg/ml) were added prior to analysis by flow cytometry. Each analysis was performed on at least 25.000 events.

T cells (PBT, LPT) = assay: Integrin accessibility on T cell surface (flow cytometry); format: cell-based, human
Experimental: (§2) For surface staining, cells were washed twice in ice-cold PBS and 1×10^6 cells were resuspended in flow buffer (HBSS containing 1% BSA and 0.1% sodium azide). Cells were incubated with the respective mAb at predetermined saturating concentrations or with isotype-matched nonspecific mouse mAb (DAKO) for 30 min at 4° C., washed twice with flow buffer, and incubated with FITC-conjugated goat anti-mouse IgG for 30 min at 4° C. The cells were again washed twice with flow buffer, fixed in 1% paraformaldehyde and analyzed by a single laser flow cytometer (FacsCalibur, […]), using Cell Quest software (BD Pharmingen). Cells stained with a negative control Ab were gated to contain <2% positive cells. To perform analysis of intracellular proteins, cells were washed twice with PBS, adjusted to 1×10^6 cells per sample, and fixed in 90% methanol at −20° C. After fixation, cells were washed twice with PBS and incubated with a monoclonal mouse anti-bax, Bcl-2, Rb, Cyclin A, p21, p27, or p53 antibody for 45 minutes at 4° C., followed by an incubation with a goat anti-mouse FITC-conjugated mAb (Biosource) for 45 minutes at 4° C. Thereafter cells were washed and analyzed by flow cytometry as described above. The background level of immunofluorescence was determined by incubating cells with FITC-conjugated mouse IgG (isotype control).

PBT [3] = assay: Apoptosis regulator proteins by immunoblotting and flow cytometry; format: cell-based, human
Experimental: as §1, §2

PBT [4] = assay: Mitochondrial membrane potential (rhodamine 123); format: cell-based, human; conditions: CD3 activated PBT, 50 μg/ml
Source text: Rhodamine 123 is a fluorescent cationic dye that accumulates in the mitochondrial matrix because of its charge and solubility in both the inner mitochondrial membrane and matrix space (22). Based on the observation that accumulation of this lipophilic dye is in proportion to ΔΨ, and that deenergizing of the mitochondria decreases rhodamine 123 fluorescence (23), the inventors measured the mitochondrial membrane potential of PBT. Cells were stimulated in the presence or absence of galectin-2 with CD3 for 24 h, harvested, washed and resuspended in 1 ml of rhodamine 123 (10 μg/ml, Sigma-Aldrich) for 30 min at 37° C. in the dark. The samples were washed twice in cold PBS and fluorescence analysis by flow cytometry using an argon ion laser with an emission filter at 530 nm was performed immediately without fixation (BD FacsCalibur). PBT without stimulation and unstained samples were used as controls.

[5] = 100 mg/kg once daily i.p. for 5 days

B1: galectin-2: β-galactoside binding lectin, non-covalent dimer with subunits of about 14 kDa; recombinant human or rat (SEQ ID NO:1, 2) (protein)
chain: MAGELEVKNMDMKPGSTLKITGSIADGTDGFVINLGQGTDKLNLHFNPRFSESTIVCNSLDGSNWGQEQREDHLCFSPGSEVKFTVTFESDKFKVKLPDGHELTFPNRLGHSHLSYLSVRGGFNMSSFKLKE
mortality [1, 5]: None of these animals died | pathological assessment of heart, kidney, lung, liver [1, 5]: did not reveal any microscopic or macroscopic damage | weight gain [1, 5]: about 7±1.7% | highest dose evaluated relative to optimal dose ([1]; 100 mg/kg versus 2×1 mg/kg): about 50 fold | dose limiting toxicities ([1]; broad dose range up to 100 mg/kg): no dose limiting toxicities were observed | glycoproteins co-immunoprecipitated (CD3, CD7, β1 integrin): coimmunoprecipitate only with integrin β1 | cyclin B1 levels / cell cycle progression (PBT [2]; anti-CD3 activated PBT): unchanged cyclin B1 levels | cell cycle phase distribution (PBT [2]; anti-CD3 activated PBT, 25, 50, 100 μg/ml): comparable | protein levels of cyclin D2, Rb, cyclin A, p21, p27, p53 (PBT [2]; western blot, 72 h): did not alter protein levels | β4 integrin accessibility (T cells (PBT, LPT); CD3 activated PBT): neither galectin-1 nor galectin-2 changed | integrin α5 accessibility (T cells (PBT, LPT); CD3 activated PBT, 50 μg/ml): downregulated | integrin β1 accessibility (T cells (PBT, LPT); CD3 activated PBT, 50 μg/ml): downregulated | integrin a5 accessibility (T cells (PBT, LPT); CD3 activated PBT, second statement): slightly upregulated | integrin β1 accessibility (T cells (PBT, LPT); intestinal T cells (LPT)): failed to modulate | bax protein expression (PBT [3]; 0, 25, 50 μg/ml, 48 h): increases | bcl-2 protein expression (PBT [3]; 0, 25, 50 μg/ml, 48 h): significantly reduces | cytochrome c release (PBT [3]; data not shown): dose-dependently increased cytochrome c release in activated, but not resting T cells | DNA-fragmentation factor (DFF) (PBT [3]; immunoblotting): dose-dependently upregulated | mitochondrial polarization potential (PBT [4]): clear decrease in the mitochondrial polarization potential
